Tests used:
[1] = biological target: VLRB.2D, lamprey variable lymphocyte receptor B specific for hen egg white lysozyme (lamprey); experiment: ITC
[2] = biological target: VLRB.2DMut13, in vitro affinity-matured variant of VLRB.2D (lamprey); experiment: ITC

Kd [1]: 430 nM
Kd [2]: 34 nM
Substance: hen egg white lysozyme (from UniProt P00698 19-147) (enzyme)

Reference: publication PMC2722044
